Source: the RNAGym collection of RNA variant scans (doi:10.1073/pnas.2313332121)

B1: TPR t1 (parent)
chain: GACCAAUCUGCCCUCAGAGCUCGAGAACAUCUUCGGAUGCAGAGGAGGCAGGCUUCGGUGGCGCGAUAGCGCCAACGUCCUCAACCUCCAAUGCAUCCCACCACAUGAUGAUGCCUGAAGAGCCUUGGUUUUUUG

Variants of: B1
Experiment: polymerase ribozyme fitness, log enrichment relative to wild type (log ratio); higher = more active; in vitro selection for triplet polymerase activity
Outline: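 Frozen incubation at −7 °C formed the core of a single, triplicate in vitro selection round applied to PCR-built, transcribed mutant libraries of each subunit of a heterodimeric triplet polymerase ribozyme. Extended constructs were gel-excised, captured with streptavidin beads and amplified by RT-PCR, and input and output libraries were Illumina-sequenced with a filter of ≥10 input reads and ≥1 read per output. Fitness is the logarithm of genotype enrichment relative to wild-type enrichment, with inverse-variance-weighted replicate averaging, and the logarithm is base 2.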

Variant	polymerase ribozyme fitness (log ratio)
GACCAAUCUGCCCUCAGAGCUCGAGAACAUCUUCGGAUGCAGAGGAGGCAGGCUUCGGUGGCCCGAUAGCGCCAACGUCCUCAACCUCCAAUGCAUCCCACCACAUGAUGAUCCCUGAAGAGCCUUGGUUUUUUG [G63C G113C]	-3.38
GACCAAUCUGCCCUCAGAGCUCGAGAACAUCUUCGGAUGCAGAGGAGGCAGGCUUCGGUGGCCCGAUAGCGCCAACGUCCUCAACCUCCAAUGCAUCCCACCACAUGAUGAUGCCUUAAGAGCCUUGGUUUUUUG [G63C G117U]	-2.64
GACCAAUCUGCCCUCAGAGCUCGAGAACAUCUUCGGAUGCAGAGGAGGCAGGCUUCGGUGGCCCGAUAGCGCCAACGUCCUCAACCUCCAAUGCAUCCCACCACAUGAUGAUGCCUGAAGAGGCUUGGUUUUUUG [G63C C123G]	0.737
GACCAAUCUGCCCUCAGAGCUCGAGAACAUCUUCGGAUGCAGAGGAGGCAGGCUUCGGUGGCCCGAUAGCGCCAACGUCCUCAACCUCCAAUGCAUCCCACCACAUGAUGAUGCCUGAAGAGACUUGGUUUUUUG [G63C C123A]	0.07
GACCAAUCUGCCCUCAGAGCUCGAGAACAUCUUCGGAUGCAGAGGAGGCAGGCUUCGGUGGCCCGAUAGCGCCAACGUCCUCAACCUCCAAUGCAUCCCACCACAUGAUGAUGCCUGAAGAGUCUUGGUUUUUUG [G63C C123U]	0.859
GACCAAUCUGCCCUCAGAGCUCGAGAACAUCUUCGGAUGCAGAGGAGGCAGGCUUCGGUGGCCCAAUAGCGCCAACGUCCUCAACCUCCAAUGCAUCCCACCACAUGAUGAUGCCUGAAGAGCCUUGGUUUUUUG [G63C G65A]	-5.84
GACCAAUCUGCCCUCAGAGCUCGAGAACAUCUUCGGAUGCAGAGGAGGCAGGCUUCGGUGGCUCGAUAGCGCCAACGUCCUCGAACUCCAAUGCAUCCCACCACAUGAUGAUGCCUGAAGAGCCUUGGAUUUUUG [G63U A83G C85A U129A]	-2.64
GACCAAUCUGCCCUCAGAGCUCGAGAACAUCUUCGGAUGCAGAGGAGGCAGGCUUCGGUGGCCCGAUAGCGCCAACGUCCUCAACCUCCAAUGCAUCCCAUCACAUGAUGAUGCCUGAAGAGCCUUGGUGUUUUG [G63C C101U U130G]	-0.981
GACCAAUCUGCCCUCAGAGCUCGAGAACAUCUUCGGAUGCAGAGGAGGCAGGCUUCGGUGGCCCGAUAGCUCCAACGUCCUCAACCUCCAAUGCAACCCUCCACAUGAUGAUGCCUUAAGAGCCUUGGUUUUUGG [G63C G71U U96A A100U G117U U134G]	-5.35
GACCAAUCUGCCCUCAGAGCUCGAGAACAUCUUCGGAUGCAGAGGAGGCAGGCUUCGGUGGCCCGAUAGCGCCAACGUCCUCAACCUCCAAUGCAUCCCACCACAUGAUGAUGCCUGAAGAGCCCUGGUUUUUUG [G63C U125C]	-3.57
GACCAAUCUGCCCUCAGAGCUCGAGAACAUCUUCGGAUGCAGAGGAGGCAGGCUUCGGUGGCCCGAUAGCGCCAACGUCCUCAACCUCCAAUACAUCCCACCACAUGAUGAUGCCUGAAGAACCUUGGUUUUUUG [G63C G93A G122A]	-1.99
GACCAAUCUGCCCUCAGAGCUCGAGAACAUCUUCGGAUGCAGAGGAGGCAGGCUUCGGUGGCUCGAUAGCGCCAACGUCCUCAACCUCCAAUGCAUCCCCCCACAUGAUGAUGCCUGAAGAGCCUUGGUUUUUUG [G63U A100C]	-2.79
GACCAAUCUGCCCUCAGAGCUCGAGAACAUCUUCGGAUGCAGAGGAGGCAGGCUUCGGUGGCCCGAUAGCGCCAACGUCCUCAACCUCCAAUGCAUCCCACCACAUGACGAUGCCUGAAGAGCCUUGGUUUUUUG [G63C U109C]	-4.03
GACCAAUCUGCCCUCAGAGCUCGAGAACAUCUUCGGAUGCAGAGGAGGCAGGCUUCGGUGGCCCGAUAGCGCCAACGUCCUCAACCUCCAAUGCAUCCCACCACAUGAGGAUGCCUGAAGAGCCUUGGUUUUUUG [G63C U109G]	-3.42
GACCAAUCUGCCCUCAGAGCUCGAGAACAUCUUCGGAUGCAGAGGAGGCAGGCUUCGGUGGCCCGAUAGCGCCAACGUCCUCAACCUCCAAUGCAUCCCACCAAAUGAUGAUGCCUGAAGAGCCUUGGUUUUUUG [G63C C104A]	-1.86
GACCAAUCUGCCCUCAGAGCUCGAGAACAUCUUCGGAUGCAGAGGAGGCAGGCUUCGGUGGCCCGAUAGCGCCAACGUCCUCAACCUCCAAUCCAUUCCAUCACAUGAUGAUGCCUGAAGAGCCUUGGUUUUUUG [G63C G93C C97U C101U]	-1.93
GACCAAUCUGCCCUCAGAGCUCGAGAACAUCUUCGGAUGCAGAGGAGGCAGGCUUCGGUGGCCCGAUAGCGCCAACGUCCUCAACCACCAAUGCAUCCCUCCACAUGAUGAUGCCUGAAGAGCCUUCGUUUUUUG [G63C U87A A100U G127C]	-2.77
GACCAAUCUGCCCUCAGAGCUCGAGAACAUCUUCGGAUGCAGAGGAGGCAGGCUUCGGUGGCCCGAUAGCGCCAACGUCCUCAACCUCCAAUGCAUCCCACCACAUUAUGAUGCCUGAAGAGCCUUGGUUUUUUG [G63C G107U]	-5.92
GACCAAUCUGCCCUCAGAGCUCGAGAACAUCUUCGGAUGCAGAGGAGGCAGGCUUCGGUGGCCCGAUAGCGCCAACGUCCUCAACCUCCAAUGCAUCCCACCACAUGAUGAUGCCUGAAUAGCCUUGGUUUUUUG [G63C G120U]	-0.189
GACCAAUCUGCCCUCAGAGCUCGAGAACAUCUUCGGAUGCAGAGGAGGCAGGCUUCGGUGGCCCGAUAGCGCCAACGUCCUCAACCUCCAAUGCAUCCCACCACAUGAUGAUGCCUGAAAAGCCUUGGUUUUUUG [G63C G120A]	0.11
GACCAAUCUGCCCUCAGAGCUCGAGAACAUCUUCGGAUGCAGAGGAGGCAGGCUUCGGUGGCUCGAUCGCGCCAACGUCCUCAACCUCCAAUGCAUCCCACCACAUGAUGAUGCCUGAAGGGCCUUGGUUUUUUG [G63U A68C A121G]	-5.43
